The term koff denotes a measure of how fast the partners let go of each other. High values mean a short-lived complex, low ones a long-lived complex. In general, Kd refers to the constant that tells how readily two partners part at equilibrium.

Where no end group is shown, it is not given here.

In test [1] the target is T1, Tumor Necrosis Factor-alpha (TNF-α).
T1 construct: also called TNF-a
Put plainly: SPR kinetic fits of sensorgrams. For orientation: In SPR one partner is held on a chip, and binding of the other changes the refractive index at the surface.

For test [2] the target is unchanged. Put plainly: SPR equilibrium, Biacore A100, TNF-α captured on chip. The procedure: Point-mutant libraries were prepared in 96-well stock plates From the stock plate, peptides were diluted to 50 μM concentration in Biacore HBS-EP buffer (GE Healthcare, Piscataway, N.J.) containing 1 mg/ml carboxymethyl-dextran (Sigma-Aldrich, St. Louis, Mo.) to reduce non-specific binding to the CM-5 SPR chip surface. […] Spot 3 contained only immobilized neutravidin and served as a reference spot.
Purified point-mutant affinities were measured on the Biacore A100 using SPR equilibrium binding response across a series of peptide concentrations on an SPR chip with TNF-α captured as described above.

Test [3] concerns the target T2, pooled human transferrin (Sigma), biotinylated (human, UniProt P02787 20-698, biotinylated at amines with NHS-LC-LC-Biotin).
T2 construct: Captured on Neutravidin on a CM5 chip (Biacore A-100)
Briefly: SPR Biacore A-100, purified peptide at several concentrations. The text has this:
A Biacore A-100 Surface Plasmon Resonance (SPR) system was used to measure the binding response of each peptide to several different target proteins immobilized on a gold surface. The A-100 has four different flow cells and within each flow cell are five addressable spots. Therefore four different proteins and a negative control reference can be used per flow cell. Depending on the purpose of the assay, up to 16 different target proteins can be immobilized on a single SPR chip. The instrument is equipped to evaluate up to 10 384-well plates unattended and can process approximately four 384-well plates per day. Sensorgrams are collected from each immobilized protein, so a binding profile for each analyte versus each of the protein targets is generated for each injection. Target proteins were immobilized using a biotin capture approach in which a CM5 chip was activated using standard amine coupling chemistry and Neutravidin was covalently coupled to the chip. Each biotinylated protein was injected over a single spot and the amount of protein captured was measured.

In test [4] the target is T3, Gal80 (UniProt P04387 1-435, limits assumed).
T3 construct: Cy3/Cy5 or otherwise fluorescently labelled on arrays; immobilised in SPR and ELISA
T3 sequence (looked up): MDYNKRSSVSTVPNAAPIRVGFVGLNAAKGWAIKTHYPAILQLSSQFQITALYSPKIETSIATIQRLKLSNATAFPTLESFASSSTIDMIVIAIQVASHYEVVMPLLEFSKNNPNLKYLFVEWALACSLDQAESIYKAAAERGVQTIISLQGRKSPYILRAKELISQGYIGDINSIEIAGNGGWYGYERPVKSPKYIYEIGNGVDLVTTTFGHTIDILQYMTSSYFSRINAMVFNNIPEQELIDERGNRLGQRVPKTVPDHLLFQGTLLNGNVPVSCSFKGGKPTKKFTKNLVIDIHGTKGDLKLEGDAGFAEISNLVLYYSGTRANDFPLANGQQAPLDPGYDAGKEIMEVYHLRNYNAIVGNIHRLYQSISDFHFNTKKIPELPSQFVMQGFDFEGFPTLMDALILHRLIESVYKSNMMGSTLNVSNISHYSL
Put plainly: gel shift assay; gel shift assay. For orientation: A gel shift assay detects complexes by their altered migration in electrophoresis.

For test [5], the target named is T3, Gal80. Briefly: SPR, synbody in solution, surface-bound Gal80; SPR, synbody in solution, surface-bound Gal80.
The target in another test is T4, transferrin.
T4 construct: Alexa 555 labelled on arrays, amine-coupled to the chip in SPR, on beads in mRNA display; also called TRF; transferring
Briefly: SPR.

In another test the target is AKT1 (Homo sapiens (Human), UniProt P31749 1-480). Briefly: SPR.
The next test concerns the target T5, ANXA1 (human, UniProt P04083).
T5 construct: GST fusion, feature of the Invitrogen Protoarray Human Protein Microarray v; 4.0
T5 sequence (array feature, looked up): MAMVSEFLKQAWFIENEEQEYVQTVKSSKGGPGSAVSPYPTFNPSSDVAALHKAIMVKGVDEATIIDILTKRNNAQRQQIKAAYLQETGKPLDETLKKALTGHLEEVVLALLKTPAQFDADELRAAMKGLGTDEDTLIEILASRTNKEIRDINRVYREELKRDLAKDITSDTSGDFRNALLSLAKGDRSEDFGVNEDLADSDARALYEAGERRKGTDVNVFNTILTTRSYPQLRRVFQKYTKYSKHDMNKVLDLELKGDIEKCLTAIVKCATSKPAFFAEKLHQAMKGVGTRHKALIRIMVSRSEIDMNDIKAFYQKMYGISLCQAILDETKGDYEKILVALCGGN
Briefly: Invitrogen Protoarray Human Protein Microarray v. 4.0; biotinylated synbody detected with fluorescently labelled streptavidin; fluorescence intensity above background. The procedure: (§1) Application of the synbodies to the microarray was performed in accordance with manufacturer instructions: (see ProtoArray Human Protein Microarray, Invitrogen, Catalog no. PAH052401, Version B, 15 Dec. 2006, 25-0970, Users Manual.) After blocking the array with 1% BSA/PBS/0.1% Tween for 1 hour at 4C with gentle shaking, 120 μl of probing buffer (1×PBS, 5 mM mgCl2, 0.5 mM DTT, 0.05% Triton X-100, 5% glycerol, 1% BSA) with synbody was applied to the array. The prescribed cover slip was placed over the array and adjusted to remove air bubbles. The array was incubated in a 50 ml conical tube, printed side up, for 1.5 hours at 4C without shaking. The array was then removed from the conical tube inserted diagonally into the array chamber, kept on ice. 8 ml probing buffer was added to the chamber wall. The cover slip was removed and the array was incubated in probing buffer for 1 minute on ice. The probing buffer was decanted and drained. Two further washings were performed adding 8 ml probing buffer, incubating on ice for 1 minute, and decanting and draining. 5 nM fluorescently labeled streptavidin diluted in 6 ml probing buffer was incubated on the array for 30 minutes on ice in the dark, after which the solution was decanted and drained. Three wash steps were performed, each by adding 8 ml probing buffer, incubating for 1 minute on ice, decanting, and draining. The array was removed from the chamber, centrifuged at 800×g for 5 minutes at room temperature. The array was dried in the dark for 60 minutes at room temperature, after which it was scanned using a fluorescent microarray scanner and data was taken and analyzed.

The next test concerns the target T6, ROCK2 (human, UniProt O75116).
T6 construct: GST fusion, feature of the Invitrogen Protoarray Human Protein Microarray v; 4.0
The description is as above. The procedure: as §1

The next test addresses T7, PTK2 (human, UniProt Q05397).
T7 construct: GST fusion, feature of the Invitrogen Protoarray Human Protein Microarray v; 4.0
Described as above. The procedure: as §1

For a further test, the target named is T8, LACRT (human, UniProt Q9GZZ8).
T8 construct: GST fusion, feature of the Invitrogen Protoarray Human Protein Microarray v; 4.0
T8 sequence (array feature, looked up): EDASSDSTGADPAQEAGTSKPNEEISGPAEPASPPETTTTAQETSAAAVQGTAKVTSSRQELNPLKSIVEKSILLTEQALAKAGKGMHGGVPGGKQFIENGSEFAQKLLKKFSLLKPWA
The test is described as above. The procedure: as §1

The target in another test is T9, CHAF1B (human, UniProt Q13112).
T9 construct: GST fusion, feature of the Invitrogen Protoarray Human Protein Microarray v; 4.0
The test is described as above. The procedure: as §1

A further test deals with T10, ACTC (human, UniProt P68032).
T10 construct: GST fusion, feature of the Invitrogen Protoarray Human Protein Microarray v; 4.0
The test is described as above. The procedure: as §1

T1 sequence (P01375 77-233): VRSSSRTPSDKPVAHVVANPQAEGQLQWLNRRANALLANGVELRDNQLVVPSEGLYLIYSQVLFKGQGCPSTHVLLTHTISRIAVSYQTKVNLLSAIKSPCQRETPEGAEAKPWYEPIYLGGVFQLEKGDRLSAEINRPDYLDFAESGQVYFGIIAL
AKT1, sequence (P31749 whole entry): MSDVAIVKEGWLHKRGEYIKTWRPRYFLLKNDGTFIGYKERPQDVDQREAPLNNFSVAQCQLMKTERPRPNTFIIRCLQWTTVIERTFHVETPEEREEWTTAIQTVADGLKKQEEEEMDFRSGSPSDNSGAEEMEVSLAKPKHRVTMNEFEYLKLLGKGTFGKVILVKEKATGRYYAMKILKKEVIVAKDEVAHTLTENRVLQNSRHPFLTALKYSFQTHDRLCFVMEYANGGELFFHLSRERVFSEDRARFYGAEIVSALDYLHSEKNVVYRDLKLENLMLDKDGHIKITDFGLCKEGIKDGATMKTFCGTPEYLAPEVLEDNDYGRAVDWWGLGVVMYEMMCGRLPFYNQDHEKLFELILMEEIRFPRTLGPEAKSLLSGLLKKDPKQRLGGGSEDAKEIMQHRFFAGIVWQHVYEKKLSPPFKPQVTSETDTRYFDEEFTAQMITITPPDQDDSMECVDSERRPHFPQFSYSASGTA
T9 sequence (Q13112 whole entry, the tested form may be a part): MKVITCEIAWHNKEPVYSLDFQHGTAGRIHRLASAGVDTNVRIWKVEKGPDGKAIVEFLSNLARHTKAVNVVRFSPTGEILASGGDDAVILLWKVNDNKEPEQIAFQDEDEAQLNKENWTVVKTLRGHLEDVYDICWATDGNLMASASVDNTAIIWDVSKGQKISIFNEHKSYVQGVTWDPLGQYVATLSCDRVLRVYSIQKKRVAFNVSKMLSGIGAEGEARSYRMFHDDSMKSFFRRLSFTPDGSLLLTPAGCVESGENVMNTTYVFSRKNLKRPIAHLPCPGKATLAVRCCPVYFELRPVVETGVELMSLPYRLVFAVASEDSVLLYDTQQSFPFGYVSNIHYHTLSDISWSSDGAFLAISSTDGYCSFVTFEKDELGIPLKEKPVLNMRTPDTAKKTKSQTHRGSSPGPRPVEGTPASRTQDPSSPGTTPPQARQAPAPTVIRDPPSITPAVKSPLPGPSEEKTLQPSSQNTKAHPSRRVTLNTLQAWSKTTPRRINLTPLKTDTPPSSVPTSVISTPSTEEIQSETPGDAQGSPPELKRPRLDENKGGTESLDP
T7 sequence (Q05397 whole entry, the tested form may be a part): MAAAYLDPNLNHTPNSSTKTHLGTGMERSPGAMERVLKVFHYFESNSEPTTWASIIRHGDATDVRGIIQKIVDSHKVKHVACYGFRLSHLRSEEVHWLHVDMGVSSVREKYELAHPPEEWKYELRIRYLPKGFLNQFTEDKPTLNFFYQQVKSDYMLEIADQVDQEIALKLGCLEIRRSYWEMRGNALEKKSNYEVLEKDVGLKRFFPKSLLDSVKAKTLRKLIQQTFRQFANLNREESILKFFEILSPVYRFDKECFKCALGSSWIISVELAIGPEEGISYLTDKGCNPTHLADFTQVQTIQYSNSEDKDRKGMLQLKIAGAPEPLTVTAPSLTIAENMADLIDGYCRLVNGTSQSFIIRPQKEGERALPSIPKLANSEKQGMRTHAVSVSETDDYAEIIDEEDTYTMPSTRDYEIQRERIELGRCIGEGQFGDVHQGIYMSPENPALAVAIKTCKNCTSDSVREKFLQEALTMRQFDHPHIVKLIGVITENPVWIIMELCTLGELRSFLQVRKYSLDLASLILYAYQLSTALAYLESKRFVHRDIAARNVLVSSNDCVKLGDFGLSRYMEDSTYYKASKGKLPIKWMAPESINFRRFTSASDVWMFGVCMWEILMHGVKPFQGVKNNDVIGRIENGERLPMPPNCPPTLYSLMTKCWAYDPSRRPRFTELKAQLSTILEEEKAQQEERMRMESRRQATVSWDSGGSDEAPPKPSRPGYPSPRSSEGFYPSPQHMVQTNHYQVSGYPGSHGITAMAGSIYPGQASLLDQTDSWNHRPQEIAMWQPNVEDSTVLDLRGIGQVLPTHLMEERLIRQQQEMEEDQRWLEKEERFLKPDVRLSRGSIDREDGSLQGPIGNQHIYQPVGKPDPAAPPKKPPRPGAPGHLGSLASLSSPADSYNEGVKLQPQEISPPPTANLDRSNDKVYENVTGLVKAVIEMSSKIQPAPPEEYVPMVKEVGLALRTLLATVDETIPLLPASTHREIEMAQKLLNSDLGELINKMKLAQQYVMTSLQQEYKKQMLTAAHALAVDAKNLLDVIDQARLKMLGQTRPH
T2 sequence (P02787 20-698 limits assumed): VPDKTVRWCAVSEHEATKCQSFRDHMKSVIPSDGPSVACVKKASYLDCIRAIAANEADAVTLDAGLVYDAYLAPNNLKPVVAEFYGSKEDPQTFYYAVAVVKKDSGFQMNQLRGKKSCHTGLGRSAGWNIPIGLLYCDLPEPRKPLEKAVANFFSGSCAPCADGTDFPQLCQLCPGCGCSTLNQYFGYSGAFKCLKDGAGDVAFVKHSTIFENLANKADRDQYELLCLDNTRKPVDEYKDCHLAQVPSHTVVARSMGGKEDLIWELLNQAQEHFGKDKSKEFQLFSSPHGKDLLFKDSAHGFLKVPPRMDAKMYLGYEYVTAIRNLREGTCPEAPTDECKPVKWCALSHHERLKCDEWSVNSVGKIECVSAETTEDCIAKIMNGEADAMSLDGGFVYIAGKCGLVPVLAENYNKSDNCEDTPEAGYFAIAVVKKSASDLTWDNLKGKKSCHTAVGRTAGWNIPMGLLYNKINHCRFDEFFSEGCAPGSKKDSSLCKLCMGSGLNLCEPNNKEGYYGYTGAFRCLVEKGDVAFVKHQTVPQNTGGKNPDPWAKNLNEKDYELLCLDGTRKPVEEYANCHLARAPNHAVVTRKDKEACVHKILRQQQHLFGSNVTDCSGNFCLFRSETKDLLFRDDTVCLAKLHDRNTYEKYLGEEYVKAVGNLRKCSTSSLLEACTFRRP
T4 sequence (P02787 20-698): as the sequence (P02787 20-698 limits assumed) above
T6 sequence (O75116 1-552 limits assumed): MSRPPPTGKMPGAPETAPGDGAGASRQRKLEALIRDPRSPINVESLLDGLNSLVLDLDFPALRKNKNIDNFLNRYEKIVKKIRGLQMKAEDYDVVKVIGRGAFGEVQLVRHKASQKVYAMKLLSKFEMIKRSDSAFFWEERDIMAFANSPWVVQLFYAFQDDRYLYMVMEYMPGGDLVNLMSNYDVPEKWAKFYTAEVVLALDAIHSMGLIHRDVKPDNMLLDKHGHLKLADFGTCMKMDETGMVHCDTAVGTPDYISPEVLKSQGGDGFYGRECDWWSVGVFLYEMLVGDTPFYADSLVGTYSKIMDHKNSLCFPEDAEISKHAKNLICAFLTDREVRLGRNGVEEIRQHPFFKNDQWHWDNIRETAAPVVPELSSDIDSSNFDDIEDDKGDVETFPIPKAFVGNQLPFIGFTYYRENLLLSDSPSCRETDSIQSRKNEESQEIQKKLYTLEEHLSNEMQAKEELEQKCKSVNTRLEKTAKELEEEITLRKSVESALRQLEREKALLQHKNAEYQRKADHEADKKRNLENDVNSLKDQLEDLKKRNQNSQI

In [1], FERDPLMMPWSFLQSRQGSC [TNF1 lead peptide] gave a koff of 1.6 s⁻¹. The Kd in test [2] was found to be 160000 nM.

B1: TRF101 (peptide)
peptide: ARDLLIQKNSGQDVDHRGSC
notes: Screened unpurified, then resynthesised and HPLC purified for the KD
Consider B1, for which, in test [3], the affinity, expressed as Kd, was 78900 nM.

B2: linker-optimized BP1/BP2 DNA-linked synbody (BP1 on the template strand, BP2 at position 13 from the 3' end of the variable strand) (designed binder)
peptide 1: GTEKGTSGWLKTGSC
peptide 2: EGEWTEGKLSLRGSC
modifications: not fully specified (some residues, bridges); also: two DNA strands, each joined to a peptide C-terminal Cys through SMCC, double-stranded DNA linker
notes: Two peptides held by a double-stranded DNA linker; for ELISA a third psoralen-crosslinked strand carried biotin and streptavidin-HRP; also called gal80 synbody; the linker-optimized synbody
As to B2, the results for the Kd with Gal80 [4] and in the test with Gal80 [5] were around 100 nM and 91 nM, respectively.

B3: SYN23-26 (designed binder)
peptide 1: FRGWAHIFFGPHVIYRGGSG
peptide 2: AHKVVPQRQIRHAYNRYGSG
modifications: also: linker at chain A 20 at chain B 20 to a chain's C-terminus via Lys-Cys(biotin)
notes: Two 20-mers on the alpha and epsilon amines of a lysine, about 1 nm apart; thiol of the cysteine biotinylated for array detection; also called biotinylated anti-TRF synbody
B3: the Kd was around 141 nM in the test with transferrin and around 1 nM with AKT1. The binding result is “binds” in the test with ANXA1; “no binding” with ROCK2; “no binding” in the test with PTK2; “no binding” in the test with LACRT; “binds” with CHAF1B; “binds” with ACTC.

For the origin of these results see patent publication US20120065123A1 (published 2012).
